Laboratory results taken from US20140155466.

How the values were obtained:
Test in all cases: cell_activity
[1] = tested on: Human alpha1/beta2-receptor autoantibodies (Alzheimer patient) (Homo sapiens); settings: Alzheimer patient 1, 8.0 without aptamer; 100 nM
[2] = tested on: Human autoantibodies against PAR receptor (PAR-receptor AAB) (Homo sapiens); settings: Raynaud patient 1, 7.33 without aptamer; 100 nM
[3] = tested on: Human autoantibodies against alpha1-adrenergic receptor (alpha1-receptor AAB) (Homo sapiens); settings: pulmonary hypertension patient 2, 5.17 without aptamer; 100 nM
[4] = tested on: Human autoantibodies against angiotensin II AT1 receptor (AT1-receptor AAB) (Homo sapiens); settings: malignant hypertension, 7.83 without aptamer; kidney transplant 6.17 to 0.17; 100 nM
[5] = tested on: Human autoantibodies against beta1-adrenergic receptor (beta1-receptor AAB, 1st loop) (Homo sapiens); settings: DCM patient 1, 6.33 without aptamer; 100 nM
[6] = tested on: Human autoantibodies against beta1-adrenergic receptor (beta1-receptor AAB, 2nd loop) (Homo sapiens)
[7] = tested on: Human autoantibodies against beta2-adrenergic receptor (beta2-receptor AAB) (Homo sapiens); settings: 100 nM
[8] = tested on: Human autoantibodies against endothelin receptor type A (ETA-AAB) (Homo sapiens); settings: pulmonary hypertension patient 2, -4.8 without aptamer
[9] = tested on: Human autoantibodies against muscarinic M2 receptor (M2-receptor AAB) (Homo sapiens); settings: -3.67 without aptamer, 100 nM

For “GGTTGGTGTGGTTGG [thrombin-aptamer ARC183]”, the activity (delta beats/15 sec) [1] was 0, the activity (delta beats/15 sec) [2] was 0.17 and the activity (delta beats/15 sec) [3] was 0.33. The activity (delta beats/15 sec) [4] was 0.67, the activity (delta beats/15 sec) [5] was -0.17 and the activity (delta beats/15 sec) ([6]; DCM patient 1, 5.33 without aptamer, 100 nM aptamer, rat cardiomyocyte bioassay) was 0.17. The activity (delta beats/15 sec) ([7]; glaucoma patient 1, 7.33 without aptamer) was 0.33, the activity (delta beats/15 sec) ([8]; 100 nM) was 0.33 and the activity (delta beats/15 sec) ([9]; Chagas cardiomyopathy) was 0.5.
Sequence “GGTTGGTGTGGTTGG [5'-FITC-thrombin-aptamer]” has an activity (% neutralization) ([6]; loop not stated, 100 nM FITC-aptamer) of 50.
“CGCCTAGGTTGGGTAGGGTGGTGGCG [NU172 (ARC2172)]” showed an activity (delta beats/15 sec) [3] of 2, an activity (delta beats/15 sec) ([6]; peripartum cardiomyopathy, 6.33 without aptamer, 100 nM, partial) of 4 and an activity (delta beats/15 sec) ([7]; glaucoma patient 1, 7.33 without aptamer, Chagas megacolon patient 6.17 to 2.0) of 5.33. It also gave an activity (delta beats/15 sec) ([8]; sign as printed) of 2 and an activity (delta beats/15 sec) ([9]; sign as printed) of 3.
Work on “GGTTGGTGTGGTTGG [3'-dT cap thrombin-aptamer]” yielded an activity (delta beats/15 sec) ([6]; 3'-dT cap, DCM, 6.0 without aptamer, 100 nM) of 0 and an activity (delta beats/15 sec) ([7]; 3'-dT cap, Alzheimer, 5.17 without aptamer) of 0.
